The labels stand for the following.
T1: EsCas13d, nuclease-dead (Eubacterium siraeum, UniProt B0MS50, R295A;H300A;R849A;H854A)
T1 sequence: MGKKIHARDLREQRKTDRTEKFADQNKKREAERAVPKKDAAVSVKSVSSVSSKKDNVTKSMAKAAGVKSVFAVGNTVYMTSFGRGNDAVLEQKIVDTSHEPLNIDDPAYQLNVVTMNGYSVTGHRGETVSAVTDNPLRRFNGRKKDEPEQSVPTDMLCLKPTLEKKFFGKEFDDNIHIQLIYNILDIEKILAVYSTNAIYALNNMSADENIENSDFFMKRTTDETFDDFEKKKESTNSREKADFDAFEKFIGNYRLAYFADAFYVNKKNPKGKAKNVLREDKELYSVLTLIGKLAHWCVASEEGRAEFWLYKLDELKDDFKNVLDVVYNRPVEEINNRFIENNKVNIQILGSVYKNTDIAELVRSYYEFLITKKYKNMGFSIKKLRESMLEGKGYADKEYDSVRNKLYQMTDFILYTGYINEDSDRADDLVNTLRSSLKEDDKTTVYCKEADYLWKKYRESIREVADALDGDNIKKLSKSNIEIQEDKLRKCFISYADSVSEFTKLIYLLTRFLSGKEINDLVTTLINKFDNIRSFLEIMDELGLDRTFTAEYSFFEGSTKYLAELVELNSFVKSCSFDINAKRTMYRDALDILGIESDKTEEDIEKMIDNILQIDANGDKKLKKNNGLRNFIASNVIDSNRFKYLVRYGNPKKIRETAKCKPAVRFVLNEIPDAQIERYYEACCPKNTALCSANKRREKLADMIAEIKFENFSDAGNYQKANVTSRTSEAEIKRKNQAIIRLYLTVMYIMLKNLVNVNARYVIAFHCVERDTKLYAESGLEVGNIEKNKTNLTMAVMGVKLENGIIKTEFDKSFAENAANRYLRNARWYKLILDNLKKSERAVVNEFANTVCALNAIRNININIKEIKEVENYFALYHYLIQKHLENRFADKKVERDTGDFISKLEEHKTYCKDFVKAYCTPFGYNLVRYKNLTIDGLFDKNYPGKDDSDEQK

B1: target 1 insA 3' of 13,insA 3' of 10 (mixed)
RNA 1: CACCCGUGCAAAAAUGCAGGGGUCUAAAACUGAGCGGAUAACCUCUCUAUGG
RNA 2: GGGAAUGGAUCCACAUCUACGAAUUCGUACCAUAGAGAGAGUUAAUCCGCUCACCGAGAUCGGAAGAGCACACGU
B2: target 1 A16G,G17A (mixed)
RNA 1: B1 RNA 1
RNA 2: GGGAAUGGAUCCACAUCUACGAAUUCGUACCAUAAGGAGGUUAUCCGCUCACCGAGAUCGGAAGAGCACACGU
B3: target 1 insA 3' of 7,insC 3' of 5 (mixed)
RNA 1: B1 RNA 1
RNA 2: B1 RNA 2 with A40G, G41U, U43A, A44U, A45C, U46A, C48G, G49C
B4: target 1 insA 3' of 3,insU 3' of 2 (mixed)
RNA 1: B1 RNA 1
RNA 2: GGGAAUGGAUCCACAUCUACGAAUUCGUACCAUAGAGAGGUUAUCCGCUACUACCGAGAUCGGAAGAGCACACGU
B5: target 1 C4A,A14C (mixed)
RNA 1: B1 RNA 1
RNA 2: B2 RNA 2 with A35G, G36A, A38C, C48A
B6: target 1 insA 3' of 17,insU 3' of 14 (mixed)
RNA 1: B1 RNA 1
RNA 2: B1 RNA 2 with G37A, A38G, G39A, A40U, U42G, A44U
B7: target 1 G15U,C21U (mixed)
RNA 1: B1 RNA 1
RNA 2: B2 RNA 2 with C31U, A35G, G36A, G37U
B8: target 1 insU 3' of 21,insU 3' of 2 (mixed)
RNA 1: B1 RNA 1
RNA 2: GGGAAUGGAUCCACAUCUACGAAUUCGUACCUAUAGAGAGGUUAUCCGCUCUACCGAGAUCGGAAGAGCACACGU
B9: target 1 G13U,A14C (mixed)
RNA 1: B1 RNA 1
RNA 2: B2 RNA 2 with A35G, G36A, A38C, G39U
B10: target 1 G17A,A18G (mixed)
RNA 1: B1 RNA 1
RNA 2: B2 RNA 2 with A34G, G36A
B11: target 1 C4A,G5C (mixed)
RNA 1: B1 RNA 1
RNA 2: B2 RNA 2 with A35G, G36A, G47C, C48A
B12: target 1 C2U,U8A (mixed)
RNA 1: B1 RNA 1
RNA 2: B2 RNA 2 with A35G, G36A, U44A, C50U
B13: target 1 insU 3' of 14,insA 3' of 5 (mixed)
RNA 1: B1 RNA 1
RNA 2: B1 RNA 2 with G39U, A40G, A45U, U46C, C48G, G49A
B14: target 1 G5A,C6G (mixed)
RNA 1: B1 RNA 1
RNA 2: B2 RNA 2 with A35G, G36A, C46G, G47A
B15: target 1 U10C,G12A (mixed)
RNA 1: B1 RNA 1
RNA 2: B2 RNA 2 with A35G, G36A, G40A, U42C
B16: target 1 del3,del5 (mixed)
RNA 1: B1 RNA 1
RNA 2: GGGAAUGGAUCCACAUCUACGAAUUCGUACCAUAGAGAGGUUAUCCCCACCGAGAUCGGAAGAGCACACGU
B17: target 1 C2U,G13A (mixed)
RNA 1: B1 RNA 1
RNA 2: B2 RNA 2 with A35G, G36A, G39A, C50U
B18: target 1 insU 3' of 6,insA 3' of 2 (mixed)
RNA 1: B1 RNA 1
RNA 2: B4 RNA 2 with G47U, C48G, U49C, A50U, U52A
B19: target 1 U3C,A9U (mixed)
RNA 1: B1 RNA 1
RNA 2: B2 RNA 2 with A35G, G36A, A43U, U49C
B20: target 1 insC 3' of 13,insC 3' of 9 (mixed)
RNA 1: B1 RNA 1
RNA 2: B1 RNA 2 with A40C, A45C
B21: target 1 G12C,A14G (mixed)
RNA 1: B1 RNA 1
RNA 2: B2 RNA 2 with A35G, G36A, A38G, G40C
B22: target 1 C7A,A16U (mixed)
RNA 1: B1 RNA 1
RNA 2: B2 RNA 2 with A35G, G36U, C45A
B23: target 1 del7,del11 (mixed)
RNA 1: B1 RNA 1
RNA 2: B16 RNA 2 with U42A, A43U, U44C, C45G, C47U
B24: target 1 insC 3' of 9,insG 3' of 7 (mixed)
RNA 1: B1 RNA 1
RNA 2: B4 RNA 2 with U44C, C45U, U49G, A50C, C51U, U52C
B25: target 1 insG 3' of 20,insC 3' of 15 (mixed)
RNA 1: B1 RNA 1
RNA 2: B1 RNA 2 with U33G, A34U, G35A, A36G, G37A, A38G, G39C, U42G, A44U
B26: target 1 G5C,G13C (mixed)
RNA 1: B1 RNA 1
RNA 2: B2 RNA 2 with A35G, G36A, G39C, G47C
B27: target 1 insC 3' of 22,insU 3' of 14 (mixed)
RNA 1: B1 RNA 1
RNA 2: GGGAAUGGAUCCACAUCUACGAAUUCGUACCCAUAGAGAUGGUUAUCCGCUCACCGAGAUCGGAAGAGCACACGU
B28: target 1 insG 3' of 14,insA 3' of 5 (mixed)
RNA 1: B1 RNA 1
RNA 2: B1 RNA 2 with A40G, A45U, U46C, C48G, G49A
B29: target 1 A9G,U11C (mixed)
RNA 1: B1 RNA 1
RNA 2: B2 RNA 2 with A35G, G36A, U41C, A43G
B30: target 1 insU 3' of 20 (mixed)
RNA 1: B1 RNA 1
RNA 2: GGGAAUGGAUCCACAUCUACGAAUUCGUACCAUUAGAGAGGUUAUCCGCUCACCGAGAUCGGAAGAGCACACGU
B31: target 1 complement block 3-13 (mixed)
RNA 1: B1 RNA 1
RNA 2: GGGAAUGGAUCCACAUCUACGAAUUCGUACCAUAGAGACCAAUAGGCGACACCGAGAUCGGAAGAGCACACGU
B32: target 1 insU 3' of 6,insU 3' of 1 (mixed)
RNA 1: B1 RNA 1
RNA 2: B4 RNA 2 with G47U, C48G, U49C, A50U, U52A, A53U

Drawing on publication PMC10786891, “Massively parallel profiling of RNA-targeting CRISPR-Cas13d”, this text covers Kd for 32 molecules.

Where a chain is given by its changes, count along the chain named. Names may count otherwise.

Broadly, the Kd is the concentration at which binding is half-saturated. Read a high Kd as weaker binding.

This data set concerns the target T1, EsCas13d, nuclease-dead. The experiment in a line: crRNA (strand 1, pre-loaded); Mg2+; 40 mM Tris-HCl pH 7.5, 150 mM NaCl, 6 mM MgCl2, 1 mM DTT, 0.1% Tween-20, 0.2 mg/ml BSA; 25 C; 10 min per concentration, then washed. The following applies: tags: His6-TwinStrep-SUMO cleaved; N-terminal SNAP kept (SNAP-Surface 488); label: 3' end held by stalled T7 RNA polymerase.
B1 displayed a dissociation constant (Kd) of 4.3 ± 0.5 nM.
With B2 the figure was 84 ± 30 nM; with B3, 11.1 ± 0.5 nM; with B4, 9 ± 0.6 nM.
On to B5, for which the dissociation constant Kd was found to be 11.9 ± 1.3 nM.
The figure for B6 is 62 ± 11 nM.
With B7 the figure was 6.4 ± 0.5 nM; with B8, 38 ± 4 nM.
Regarding B9, binding was characterised by a dissociation constant (Kd) of 10.8 ± 0.7 nM.
The figure for B10 is 81 ± 22 nM.
With B11 the figure was 20.9 ± 1.7 nM; with B12, 21.2 ± 1 nM; with B13, 28.7 ± 3 nM.
B14 returned a Kd of 8 ± 0.4 nM.
As to B15, the Kd was determined as 13.8 ± 0.6 nM.
As for B16, the dissociation constant Kd came to 15.8 ± 0.9 nM.
With B17 the figure was 5.7 ± 0.33 nM; with B18, 12.8 ± 0.8 nM; with B19, 44 ± 6 nM.
The figure for B20 is 17.9 ± 1.1 nM.
The figure for B21 is 27.5 ± 3.1 nM.
Take B22: the Kd amounted to 42.2 ± 2.5 nM.
Consider B23, for which the Kd was found to be 15.4 ± 0.5 nM.
For B24, binding was characterised by a dissociation constant (Kd) of 11.4 ± 0.7 nM.
Consider B25, for which the dissociation constant Kd was determined as 89 ± 33 nM.
Molecule B26 showed a Kd of 41 ± 5 nM.
Turning to B27, the Kd came out at 40 ± 10 nM.
Molecule B28 showed a dissociation constant Kd of 8.1 ± 0.4 nM.
The figure for B29 is 12.1 ± 0.5 nM.
B30 registered a Kd of 10.6 ± 0.6 nM.
B31: binding was put at a Kd of 62 ± 7 nM.
With B32 the figure was 14.1 ± 1.4 nM.
